# Source: patent US20060165683A1, “Methods and compositions for control of bone formation via modulation of sympathetic tone” (priority 2001, published 2006)
# Assays:
# Type in all cases: in vivo, mouse
# wt mice = test: Long-term isoproterenol treatment of wt mice
# Procedure: Wildtype (C57BL/6J) and mutant (C57BL/6J A^y/a, C57BL/6J ob/ob) mice were obtained from the Jackson laboratory and adrenal medullectomized mice from Harlan Tecklad laboratory. Dbh−/− mice were rescued as previously described (Thomas et al., 1998, Neurochem 70:2468-2476). Isoproterenol (Sigma) was injected intraperitoneally (ip) once daily for 6 weeks at 30 mg/kg (wt) or 3 mg/kg (ob/ob). Propranolol (Sigma) was added to the drinking water at a concentration of 0.5 g/l. For ICV infusion, a 28-gauge cannula (Brain infusion kit II, Alza) was implanted into the third ventricle as previously described infusing human leptin (Sigma) at 8 ng/hr or MT-II at 125 ng/hr (Phoenix Pharmaceuticals) for 28 days (see, e.g., Ducy et al., 2000, Cell 100: 197-207). The cannula was connected to an osmotic pump (Alza) placed in the dorsal subcutaneous space of the animal. For parabiosis longitudinal incisions were made in the skin and in the peritoneal cavity along one side on each mouse. Edges of the incisions were connected by suture to induce coelioanastomosis. Cross-circulation was quantified by injecting 1 ml/kg 0.25% Evans blue into the tail vein of one mouse of the parabiosed pair. After 30 min. blood was collected from both mice by retroorbital bleeding and the blood exchange rate was calculated according to standard techniques (see, e.g., Harris & Martin, 1984, Am J Physiol 247:R380-386). […] Two weeks after parabiosis a pump delivering leptin ICV in one animal of each pair was implanted. For GTG lesioning, 4-week-old C57BL/6J mice were given a single ip injection of either PBS or GTG (0.5 mg/g). For MSG lesioning, 2 day-old C57BL/6J pups were injected daily subcutaneously with either PBS or MSG (2 mg/g) for 10 days.
# Histological analyses were performed on undecalcified sections stained by von Kossa and counterstained by von Gieson (see, e.g., Ducy et al., 2000, Cell 100:197-207). Static and dynamic histomorphometric analyses were performed according to standard protocols (see, e.g., Parfitt et al., 1987, J Bone Miner Res 6:595-610) using the Osteomeasure Analysis System (Osteometrics, Atlanta). Six to 12 animals were analyzed for each group. Statistical significance was assessed by Student's t test.
# To address this point one month-old ob/ob mice were treated for 6 weeks with the β-adrenergic agonist isoproterenol or vehicle. […] To determine the role of the SNS in animals that have none of the metabolic and neurological abnormalities caused by leptin deficiency, this experiment was repeated in wt mice.
# GTG-treated ob/ob mice = test: Leptin ICV infusion in GTG-treated ob/ob mice
# Procedure: Wildtype (C57BL/6J) and mutant (C57BL/6J A^y/a, C57BL/6J ob/ob) mice were obtained from the Jackson laboratory and adrenal medullectomized mice from Harlan Tecklad laboratory. Dbh−/− mice were rescued as previously described (Thomas et al., 1998, Neurochem 70:2468-2476). Isoproterenol (Sigma) was injected intraperitoneally (ip) once daily for 6 weeks at 30 mg/kg (wt) or 3 mg/kg (ob/ob). Propranolol (Sigma) was added to the drinking water at a concentration of 0.5 g/l. For ICV infusion, a 28-gauge cannula (Brain infusion kit II, Alza) was implanted into the third ventricle as previously described infusing human leptin (Sigma) at 8 ng/hr or MT-II at 125 ng/hr (Phoenix Pharmaceuticals) for 28 days (see, e.g., Ducy et al., 2000, Cell 100: 197-207). The cannula was connected to an osmotic pump (Alza) placed in the dorsal subcutaneous space of the animal. For parabiosis longitudinal incisions were made in the skin and in the peritoneal cavity along one side on each mouse. Edges of the incisions were connected by suture to induce coelioanastomosis. Cross-circulation was quantified by injecting 1 ml/kg 0.25% Evans blue into the tail vein of one mouse of the parabiosed pair. After 30 min. blood was collected from both mice by retroorbital bleeding and the blood exchange rate was calculated according to standard techniques (see, e.g., Harris & Martin, 1984, Am J Physiol 247:R380-386). […]
# ob/ob mice = test: Intracerebroventricular infusion of leptin in ob/ob mice
# Procedure: Lastly, the issue of whether leptin binding to its hypothalamic receptor could correct the high bone mass phenotype of the ob/ob mice as it can rescue their obesity phenotype was addressed. To that end pumps delivering either PBS or leptin (8 ng/hr) in the third ventricle of ob/ob mice were inserted as follows. Animals were anesthetized with avertin and placed on a stereotaxic instrument (Stoelting). The Calabria was exposed and a 0.7 mm hole was drilled upon bregma. A 28-gauge cannula (Brain infusion kit U, Alza) was implanted into the third ventricle according to the following coordinates: midline, −0.3 AP, 3 mm ventral (0 point bregma). The cannula was secured to the skull with cyanoacrylate, and attached with Tygon tubing to an osmotic pump (Alza) placed in the dorsal subcutaneous space of the animal. The rate of delivery was 0.25 μl/hour (8 ng/hr of leptin (Sigma)) or PBS for 28 days. The dosage has been previously shown to have no effect when administered systemically (Halaas et al., 1997, Proc Nati Acad Sci USA 94:8878-8883). To be as close as possible to the biological situation of the ob/ob mice, the animals in which pumps were inserted were ovariectomized to avoid any artificial increase in bone mass due to the correction of their hypogonadism. The pumps were left in place for 28 days and double-labeling with calcein was performed to measure the bone formation parameters.
# [1] = ob/ob mice, ICV 8 ng/hr, 28 days
Molecule,expression of uncoupling protein 1 (Ucp1) in brown adipose tissue (wt mice),"bone mass (wt mice; 30 mg/kg ip once daily, 6 weeks)","body weight (wt mice; 30 mg/kg, 6 weeks)","bone formation rate (wt mice; 30 mg/kg, 6 weeks)","osteoblast number (wt mice; 30 mg/kg, 6 weeks)",body weight (GTG-treated ob/ob mice),bone mass (GTG-treated ob/ob mice),leptin in the serum (radioimmunoassay) (ob/ob mice; ob/ob mice after ICV infusion),Bone Volume (ob/ob mice; [1]),bone formation rates (ob/ob mice; [1]),trabeculae thickness (ob/ob mice; [1]),"bone appearance (classical histology) (ob/ob mice; ovariectomized ob/ob mice, third ventricle, 8 ng/hr, 28 days, vs PBS)"
CC(C)NCC(O)c1ccc(O)c(O)c1 (stereo not drawn) [isoproterenol],increased,significantly decreased,without affecting,significantly decreased,significantly decreased,–,–,–,–,–,–,–
"leptin: polypeptide hormone, product of the ob gene; human leptin (Sigma) infused ICV (protein) VPIQKVQDDTKTLIKTIVTRINDISHTQSVSAKQRVTGLDFIPGLHPILSLSKMDQTLAVYQQVLTSLPSQNVLQIANDLENLRDLLHLLAFSKSCSLPQTSGLQKPESLDGVLEASLYSTEVVALSRLQGSLQDILQQLDVSPEC",–,–,–,–,–,decreased,failed to decrease,No leptin in the serum of these animals was detected,significantly decreased,significantly decreased,significantly decreased,regained a normal appearance
